# Target: epidermal growth factor receptor (EGFR) on A431 human epidermoid cells (human) (UniProt P00533)
# Assay: cell-based or functional assay
substance,measurement,value
streptavidin-TGF-α fusion protein (ST-TGF) (from UniProt P22629 40-157; P01135 40-89),"mean fluorescence activity (biotin-β-galactosidase delivered into each A431 cell, FACS)",214
same,"positive cells (delivery of biotin-β-galactosidase into A431 cells, staining and FACS)",> 99%

# Reference: patent publication US20090098148A1
